From US11312773B2, “Anti-PD-L1 antibody” (Fuso Pharmaceutical Industries, Ltd., priority 2016, dated 2022)

What was measured:
[1] = biological target: T1, canine PD-1/PD-L1 binding (Canis lupus familiaris, UniProt A0A8I3P7C4); assay: Canine PD-1/PD-L1 binding inhibition ELISA (cPD-1-Ig immobilized, biotinylated cPD-L1-Ig); details: antibody 0, 2.5, 5 and 10 μg/ml
T1 construct: made in house; host or cells: Expi293F
T1 sequence (A0A8I3P7C4 19-237): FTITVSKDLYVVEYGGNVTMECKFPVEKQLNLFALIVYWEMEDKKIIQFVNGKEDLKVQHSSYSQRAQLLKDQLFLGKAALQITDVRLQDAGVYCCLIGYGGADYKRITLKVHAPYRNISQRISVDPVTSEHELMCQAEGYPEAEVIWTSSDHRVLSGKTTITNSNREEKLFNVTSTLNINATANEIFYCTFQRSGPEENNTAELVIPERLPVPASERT
Procedure: Briefly, canine PD-1-Ig (prepared in 2.4 above) was immobilized on flat bottomed 96-well plates and blocked with 1% BSA and 0.05% Tween 20-containing PBS. […] The binding of cPD-L1-Ig to cPD-1-Ig was measured by color reaction using Neutravidin-HRP (Thermo Fisher Scientific) and TMB one component substrate (Bethyl Laboratories).
Briefly, heavy chain and light chain variable region genes were identified from hybridomas producing rat anti-bovine PD-L1 monoclonal antibodies 4G12 and 6G7. Further, the heavy chain and light chain variable region genes of the above rat antibodies were linked to the constant region of heavy chain IgG4 and the constant region of light chain Lambda of a known canine antibody, respectively, to prepare nucleotide sequences, followed by codon optimization (SEQ ID NOS: 9 and 10 (amino acid sequences), SEQ ID NOS: 19 and 20 (nucleotide sequences after codon optimization). Then, synthesis of genes was performed so that NotI restriction enzyme recognition site. KOZAK sequence, chimeric antibody's light chain sequence, poly-A addition signal sequence (PABGH), promoter sequence (PCMV), SacI restriction enzyme recognition site, intron sequence (INRBG), KOZAK sequence, chimeric antibody's heavy chain sequence and XbaI restriction enzyme recognition site would be located in this order. […]

[2] = tested on: canine CD80/PD-L1 binding; assay: Canine CD80/PD-L1 binding inhibition ELISA (cCD80-Ig immobilized, cPD-L1-Ig); details: antibody 0, 2.5, 5 and 10 μg/ml
Procedure: Using the canine PD-1-Ig, PD-L1-Ig and CD80-Ig (described above), anti-PD-L1 antibody was tested for its ability to inhibit canine PD-1/PD-L1 binding and CD80/PD-L1 binding. Briefly, canine PD-1-Ig or CD80-Ig was immobilized on flat-bottom 96-well plates.

canine PBMCs = assay: Canine immune cell activation: SEB-stimulated PBMCs, cytokine ELISA and EdU uptake; type: cell-based; details: SEB stimulation
oral melanoma = assay: Clinical trials in dogs with oral melanoma (Clinical Trials 1, 3, 4); type: in vivo, dog
Procedure: Briefly, tumor tissue samples fixed with formaldehyde and embedded in paraffin were sliced into 4 μm thick sections with a microtome, attached to and dried on silane-coated slide glass (Matsunami Glass) and deparaffinized with xylene/alcohol. While the resultant sections were soaked in citrate buffer [citric acid (Wako Pure Chemical) 0.37 g, trisodium citrate dihydrate (Kishida Chemical) 2.4 g, distilled water 1000 ml], antigen retrieval treatment was performed for 10 min with microwave, followed by staining using a Nichirei automatic immuno-staining device. As pretreatment, sample sections were soaked in 0.3% hydrogen peroxide-containing methanol solution at room temperature for 15 min and washed with PBS. Then, anti-bovine PD-L1 monoclonal antibody was added and reaction was conducted at room temperature for 30 min. After washing with PBS, histofine simple stain MAX-PO (Rat) (Nichirei Bioscience) was added and reaction was carried at room temperature for 30 min, followed by coloring with 3,3′-diaminobenzidine tetrahydrocholride and observation with a light microscope. Dogs with oral melanoma or undifferentiated sarcoma in which tumor cells were PD-L1 positive were used in the following inoculation test (clinical trial).
With respect to the rat-canine chimeric anti-PD-L1 antibody c4G12 to be inoculated into dogs in the clinical trial, the culture supernatant obtained by the procedures described in 2.8 above was purified by affinity chromatography using MabSelect SuRe LX (GE Healthcare) and then by hydroxyapatite chromatography using BioScale CHT20-I prepacked column (Bio-Rad) in order to remove contaminants and polymeric proteins. Aggregate-containing fractions were further purified by anion exchange chromatography using HiScreen Q-Sepharose HP prepacked column (GE Healthcare).
(1) Safety Test: The established rat-canine chimeric anti-PD-L1 antibody c4G12 was administered intravenously into a dog (beagle, spayed female, 13-year-old, about 10 kg in body weight) at 2 mg/kg, every 2 weeks, 3 times in total. […] (2) Clinical Trial 1: The established rat-canine chimeric anti-PD-L1 antibody c4G12 was administered intravenously into a PD-L1 positive dog with relapsed oral melanoma (FIG. 9A) (miniature dachshund, male, 11-year-old, about 7.5 kg in body weight) at 2 mg/kg or 5 mg/kg, every 2 weeks, 22 times in total.

B1: c4G12: rat-canine chimeric anti-PD-L1 antibody, 4G12 variable regions, canine IgG-D/Lambda constant regions; light chain SEQ ID NO: 9, heavy chain SEQ ID NO: 10 (antibody)
heavy: MGWSQIILFLVAAATCVHSQVQLQQSGAELVKPGSSVKISCKASGYTFTSNFMHWVKQQPGNGLEWIGWIYPEYGNTKYNQKFDGKATLTADKSSSTAYMQLSSLTSEDSAVYFCASEEAVISLVYWGQGTLVTVSSASTTAPSVFPLAPSCGSTSGSTVALACLVSGYFPEPVTVSWNSGSLTSGVHTFPSVLQSSGLYSLSSTVTVPSSRWPSETFTCNVVHPASNTKVDKPVPKESTCKCISPCPVPESLGGPSVFIFPPKPKDILRITRTPEITCVVLDLGREDPEVQISWFVDGKEVHTAKTQPREQQFNSTYRVVSVLPIEHQDWLTGKEFKCRVNHIGLPSPIERTISKARGQAHQPSVYVLPPSPKELSSSDTVTLTCLIKDFFPPEIDVEWQSNGQPEPESKYHTTAPQLDEDGSYFLYSKLSVDKSRWQQGDTFTCAVMHEALQNHYTDLSLSHSPGK
light: MESQTHVLISLLLSVSGTYGDIAITQSPSSVAVSVGETVTLSCKSSQSLLYSENQKDYLGWYQQKPGQTPKPLIYWATNRHTGVPDRFTGSGSGTDFTLIISSVQAEDLADYYCGQYLVYPFTFGPGTKLELKQPKASPSVTLFPPSSEELGANKATLVCLISDFYPSGVTVAWKASGSPVTQGVETTKPSKQSNNKYAASSYLSLTPDKWKSHSSFSCLVTHEGSTVEKKVAPAECS
modifications: chimeric H chain; chimeric L chain
[1]
  Inhibitory activity against canine PD-1/PD-L1 binding: reduced the amounts of binding
[2]
  Inhibitory activity against canine CD80/PD-L1 binding: reduced the amounts of binding
Canine PBMCs; 3 days, ELISA
  IFN-γ production from canine PBMCs: increased
  IL-2 production from canine PBMCs: increased
Canine PBMCs; EdU added at day 2, flow cytometry
  EdU uptake in canine CD4+ and CD8+ lymphocytes (cell proliferation): enhanced
Oral melanoma; Clinical Trial 1
  Criterion of PR (30% or more reduction in longest tumor diameter vs baseline): satisfied at weeks 16-20 and at week 34 and thereafter
Oral melanoma; Clinical Trial 1, observation period of 44 weeks
  Metastases to lymph nodes or the lung: no metastases to lymph nodes or the lung were observed
Oral melanoma; Clinical Trial 3, primary lesion removed by surgery, 2 or 5 mg/kg i.v. every 2 weeks, 9 times
  Pulmonary metastatic lesions at week 18: a plurality of pulmonary metastatic lesions disappeared
Oral melanoma; Clinical Trial 4, 4 dogs with pulmonary metastasis, 2 or 5 mg/kg i.v. every 2 weeks
  Tumor size during observation period: no clear reduction in tumor size
